Here are results for 15 molecules from patent publication US20260209362A1 (VIB VZW, published 2026).

Substitutions are numbered along the chain they refer to.

The chains are these.
T1: human IL-12Rβ2 (human, UniProt Q99665 24-862)
T1 construct: Expressed on HEK293T cells transiently transfected with a pcDNA3 plasmid (Genscript clone OHu21785); also called hIL-12RB2; IL-12 receptor β2 subunit
T1 sequence: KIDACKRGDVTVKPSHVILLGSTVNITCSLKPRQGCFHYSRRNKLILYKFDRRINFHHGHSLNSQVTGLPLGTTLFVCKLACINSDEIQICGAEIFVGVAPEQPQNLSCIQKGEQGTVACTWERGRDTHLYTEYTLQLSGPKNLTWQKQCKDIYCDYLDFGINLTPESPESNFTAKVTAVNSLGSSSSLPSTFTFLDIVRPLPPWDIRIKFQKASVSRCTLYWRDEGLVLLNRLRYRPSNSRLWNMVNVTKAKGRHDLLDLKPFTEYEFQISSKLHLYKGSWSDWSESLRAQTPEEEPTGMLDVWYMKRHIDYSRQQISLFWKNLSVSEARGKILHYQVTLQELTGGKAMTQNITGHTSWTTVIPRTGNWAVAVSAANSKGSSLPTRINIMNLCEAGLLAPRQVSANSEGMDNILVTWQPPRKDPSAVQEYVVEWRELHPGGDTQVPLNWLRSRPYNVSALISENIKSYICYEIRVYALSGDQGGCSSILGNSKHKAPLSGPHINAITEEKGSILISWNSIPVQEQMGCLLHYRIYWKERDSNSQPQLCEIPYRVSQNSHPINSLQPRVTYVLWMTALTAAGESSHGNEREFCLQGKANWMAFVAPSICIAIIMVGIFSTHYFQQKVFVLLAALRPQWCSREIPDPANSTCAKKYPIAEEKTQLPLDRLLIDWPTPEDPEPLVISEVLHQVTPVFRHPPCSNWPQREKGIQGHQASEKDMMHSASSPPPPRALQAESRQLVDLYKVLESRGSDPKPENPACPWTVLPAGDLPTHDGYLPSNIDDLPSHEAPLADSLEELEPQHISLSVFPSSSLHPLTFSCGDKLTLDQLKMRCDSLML

T2: mouse IL-12Rβ2 (mouse, UniProt P97378 24-874)
T2 construct: Expressed on HEK293T cells transiently transfected with a pcDNA3 plasmid (Genscript clone OMu01776); also called mIL-12RB2; NP_032380.1
T2 sequence: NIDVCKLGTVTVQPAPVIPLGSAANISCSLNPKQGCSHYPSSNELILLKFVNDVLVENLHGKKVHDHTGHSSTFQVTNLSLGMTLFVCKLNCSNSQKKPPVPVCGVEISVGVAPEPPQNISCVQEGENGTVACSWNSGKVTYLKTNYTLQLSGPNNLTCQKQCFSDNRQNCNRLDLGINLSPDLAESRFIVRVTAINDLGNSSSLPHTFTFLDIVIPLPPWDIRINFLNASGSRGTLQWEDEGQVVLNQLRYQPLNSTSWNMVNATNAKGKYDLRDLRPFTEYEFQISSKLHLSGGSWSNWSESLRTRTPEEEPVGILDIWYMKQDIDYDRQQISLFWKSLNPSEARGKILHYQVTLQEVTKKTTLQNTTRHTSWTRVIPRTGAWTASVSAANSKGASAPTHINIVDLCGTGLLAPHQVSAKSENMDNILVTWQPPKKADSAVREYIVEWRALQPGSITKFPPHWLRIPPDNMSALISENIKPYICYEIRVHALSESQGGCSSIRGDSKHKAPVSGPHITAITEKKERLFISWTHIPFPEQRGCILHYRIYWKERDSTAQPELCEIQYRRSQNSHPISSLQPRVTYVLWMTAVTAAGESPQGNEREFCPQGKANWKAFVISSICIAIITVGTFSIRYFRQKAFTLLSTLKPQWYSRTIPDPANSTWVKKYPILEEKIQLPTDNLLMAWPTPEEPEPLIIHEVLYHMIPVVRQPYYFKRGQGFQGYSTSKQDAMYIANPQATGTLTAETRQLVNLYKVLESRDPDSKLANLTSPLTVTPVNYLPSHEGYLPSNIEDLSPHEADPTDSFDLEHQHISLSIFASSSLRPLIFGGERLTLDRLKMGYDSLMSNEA

T3: human IL-12Rβ2 expressed on cells (human, UniProt Q99665 24-862)
T3 sequence: T1 sequence

B1: anti-IL-12Rβ2 VHH clone 3CRHM99 (VHH, not shown: small tags and cut ends)
VHH: QVQLQESGGGLVQPGGSLRLSCAASGISSSRLHVGWFRQSPGKEREFVAAISLSGGTQAYTDSVKGRFTISGDNVKNTAYLQMNSLRPEDTAVYYCAARERFIWTWSDLTYDYWGQGTQVTVSS
notes: periplasmic extract; also called 21062
B2: anti-IL-12Rβ2 VHH clone 3CRHM20 (VHH, not shown: small tags and cut ends)
VHH: QVQLQESGGGLVQAGGSLRLSCAASGRTFSKSTMGWFRQTPGKEREFVAAITWTDTEVYANSVKDRFTISRDNAKNTFYLQMHSLKLEDTAVYYCAGDRYGSSRDSVFSSPTNYPYWGQGTQVTVSS
notes: periplasmic extract; also called 21055
B3: anti-IL-12Rβ2 VHH clone 3CAHM11 (VHH, not shown: small tags and cut ends)
VHH: QVQLQESGGGLVQAGGSLRLSCAASGRTFNNYAMAWFRQAPGKEREFIAAITRSDTTLYIDSVKGRFTISRDNAKNTVALQMNSLKPEDTAVYYCAAGMPYSYSDYPRDSKYDYWGRGTQVTVSS
notes: periplasmic extract
B4: anti-IL-12Rβ2 VHH clone 3CRHM12 (VHH, not shown: small tags and cut ends)
VHH: QVQLQESGGGSVQAGGSLRLSCAVSGRTVSDYAMGWFRQAPGKEREFVAAMSSSETTVYPNSVKGRITISRDNAKNAVYLQMNALKPEDTAVYYCSMGPIVTFQGLARQNEYHYWGQGTQVTVSS
notes: periplasmic extract
B5: anti-IL-12Rβ2 VHH clone 3CAHM40 (VHH, not shown: small tags and cut ends)
VHH: B4 VHH with V63M, M82L, V101A
notes: periplasmic extract
B6: anti-IL-12Rβ2 VHH clone 3CRHM85 (VHH, not shown: small tags and cut ends)
VHH: QVQLQESGGGLVQPGGSLRLSCAASRRTFSKHAMAWFRQAPGKEREFVAVVRWSGIITYYADSVKGRFTISRDDAKNTVYLQMDSLKPEDTAVYYCAAGDYRGNGYYVPGMYDYWGQGTQVTVSS
notes: periplasmic extract; also called 21061
B7: anti-IL-12Rβ2 VHH clone 3CRHM49 (VHH, not shown: small tags and cut ends)
VHH: QVQLQESGGGLVQAGGSLRLSCAASGRTFSNYAMAWFRQAPGTEREFVAGLSGSGGDTAFYDNSVMGRFTISRDSAKNTMWLQINNLKPEDTAVYYCAAATHVVVSYGLVRRRGTYDYWGQGTQVTVSS
notes: periplasmic extract; also called 21058
B8: anti-IL-12Rβ2 VHH clone 3CRHM35 (VHH, not shown: small tags and cut ends)
VHH: B7 VHH with S106N
notes: periplasmic extract; also called 21057
B9: anti-IL-12Rβ2 VHH clone 3CRHM14 (VHH, not shown: small tags and cut ends)
VHH: B7 VHH with A59E, N63D, M66K, T70A, M80V, I84M, N86S, S106H
notes: periplasmic extract
B10: anti-IL-12Rβ2 VHH clone 3CRHM18 (VHH, not shown: small tags and cut ends)
VHH: B7 VHH with A14D, R112K
notes: periplasmic extract
B11: anti-IL-12Rβ2 VHH clone 3CRHM200 (VHH, not shown: small tags and cut ends)
VHH: B7 VHH with A14P
notes: periplasmic extract; also called 21064
B12: anti-IL-12Rβ2-VHH-FcDE clone 21062 (Fc fusion)
chain: QVQLQESGGGLVQPGGSLRLSCAASGISSSRLHVGWFRQSPGKEREFVAAISLSGGTQAYTDSVKGRFTISGDNVKNTAYLQMNSLRPEDTAVYYCAARERFIWTWSDLTYDYWGQGTQVTVSSAPELLGGPDVFLFPPKPKDTLMISRTPEVTCVVVDVSHEDPEVKFNWYVDGVEVHNAKTKPREEQYNSTYRVVSVLTVLHQDWLNGKEYKCKVSNKALPAPEEKTISKAKGQPREPQVYTLPPSRDELTKNQVSLTCLVKGFYPSDIAVEWESNGQPENNYKTTPPVLDSDGSFFLYSKLTVDKSRWQQGNVFSCSVMHEALHNHYTQKSLSLSPGK
B13: anti-IL-12Rβ2-VHH-FcDE clone 21053 (Fc fusion)
chain: QVQLQESGGGLVQAGGSLRLSCAASGRTFSNYAMAWFRQAPGTEREFVAGLSGSGGDTEFYDDSVKGRFAISRDSAKNTVWLQMNSLKPEDTAVYYCAAATHVVVHYGLVRRRGTYDYWGQGTQVTVSSAPELLGGPDVFLFPPKPKDTLMISRTPEVTCVVVDVSHEDPEVKFNWYVDGVEVHNAKTKPREEQYNSTYRVVSVLTVLHQDWLNGKEYKCKVSNKALPAPEEKTISKAKGQPREPQVYTLPPSRDELTKNQVSLTCLVKGFYPSDIAVEWESNGQPENNYKTTPPVLDSDGSFFLYSKLTVDKSRWQQGNVFSCSVMHEALHNHYTQKSLSLSPGK
B14: anti-IL-12Rβ2-VHH-FcDE clone 21060 (Fc fusion)
chain: QVQLQESGGGLVQAGGSLSLSCAASGSAFRLNFMGWYRQAPGKQRELVAAINSGGTEIYHDSVKGRFTISRDNADSTVWLQMNSLKPDDTAVYYCAADRGISWSKLAGGMDYWGKGTQVTVSSAPELLGGPDVFLFPPKPKDTLMISRTPEVTCVVVDVSHEDPEVKFNWYVDGVEVHNAKTKPREEQYNSTYRVVSVLTVLHQDWLNGKEYKCKVSNKALPAPEEKTISKAKGQPREPQVYTLPPSRDELTKNQVSLTCLVKGFYPSDIAVEWESNGQPENNYKTTPPVLDSDGSFFLYSKLTVDKSRWQQGNVFSCSVMHEALHNHYTQKSLSLSPGK
B15: anti-IL-12Rβ2-VHH-FcDE clone 21050 (Fc fusion)
chain: QVQLQESGGGLVQAGGSLRLSCAASGRTFNNYAMAWFRQAPGKEREFIAAITRSDTTLYIDSVKGRFTISRDNAKNTVALQMNSLKPEDTAVYYCAAGMPYSYSDYPRDSKYDYWGRGTQVTVSSAPELLGGPDVFLFPPKPKDTLMISRTPEVTCVVVDVSHEDPEVKFNWYVDGVEVHNAKTKPREEQYNSTYRVVSVLTVLHQDWLNGKEYKCKVSNKALPAPEEKTISKAKGQPREPQVYTLPPSRDELTKNQVSLTCLVKGFYPSDIAVEWESNGQPENNYKTTPPVLDSDGSFFLYSKLTVDKSRWQQGNVFSCSVMHEALHNHYTQKSLSLSPGK

One test concerns the target T1, human IL-12Rβ2. The test can be described thus: flow cytometry, P.E. on transfected HEK293T cells. On the technique in general: Flow cytometry measures light scatter and fluorescence of single cells or particles in a stream.
As for B1, the “% cells bound” value is 24.4% and the dMFI was determined as 558.
Consider B2, for which the “% cells bound” value was 28.7% and the dMFI amounted to 556.
The corresponding values for B3 are 37.6% and 784.
The corresponding values for B4 are 30.4% and 495.
The corresponding values for B5 are 32.7% and 544.
As to B6, the “% cells bound” value came to 31.2% and the dMFI was 676.
The corresponding values for B7 are 36% and 759.
The corresponding values for B8 are 37.3% and 826.
As for B9, the “% cells bound” value was found to be 35.8% and the dMFI is 689.
The corresponding values for B10 are 36.7% and 767.
The corresponding values for B11 are 35.3% and 694.

The target of another test is T2, mouse IL-12Rβ2. The experiment in a line: flow cytometry, P.E. on transfected HEK293T cells.
Regarding B1, the “% cells bound” value was found to be 10.7% and the dMFI turned out to be 351.
The corresponding values for B2 are 0.18% and 86.
The corresponding values for B3 are 7.51% and 294.
The corresponding values for B4 are 1.21% and 103.
Turning to B5, the “% cells bound” value was 1.02% and the dMFI amounted to 105.
B6: the “% cells bound” value was 0.74% and the dMFI came to 157.
The corresponding values for B7 are 17.1% and 421.
The corresponding values for B8 are 16% and 425.
Regarding B9, the “% cells bound” value amounted to 18.6% and the dMFI came out at 412.
The corresponding values for B10 are 15.3% and 369.
The corresponding values for B11 are 17.2% and 470.

The target in the next test is T3, human IL-12Rβ2 expressed on cells. The test can be described thus: cell-based or functional assay.
As to B12, the “% Specific Cell Lysis at 0.00125 ug/mL” value stood at 52.7%, the “% Specific Cell Lysis at 0.5 ug/mL” value is 60.9% and the “% Specific Cell Lysis at 10 ug/mL” value came to 69.5%.
For B13, the “% Specific Cell Lysis at 0.00125 ug/mL” value turned out to be 46.5%, the “% Specific Cell Lysis at 0.025 ug/mL” value is 51.6%, the “% Specific Cell Lysis at 0.5 ug/mL” value came to 64.7% and the “% Specific Cell Lysis at 10 ug/mL” value was 73.3%.
As to B14, the “% Specific Cell Lysis at 0.025 ug/mL” value turned out to be 63.9%, the “% Specific Cell Lysis at 0.5 ug/mL” value stood at 73.5% and the “% Specific Cell Lysis at 10 ug/mL” value was 75.5%.
For the molecule B15, the “% Specific Cell Lysis at 0.00125 ug/mL” value was found to be 42.4%, the “% Specific Cell Lysis at 0.025 ug/mL” value was determined as 50.1%, the “% Specific Cell Lysis at 0.5 ug/mL” value was found to be 61.3% and the “% Specific Cell Lysis at 10 ug/mL” value came out at 63.7%.
